The source of these data is patent US20190315842A1.

Assay [1] has as its target sclerosis autoantigen (Scl-70) (UniProt P11387). In words: AtheNA Multi-Lyte ANA, Ab at 12.5 ug/ml.
For assay [2], the target named is histones. Description: AtheNA Multi-Lyte ANA, Ab at 12.5 ug/ml.
Assay [3] concerns the target sclerosis autoantigen (Scl-70) (UniProt P11387). Description: AtheNA Multi-Lyte ANA, Ab at 50 ug/ml.
Assay [4] concerns the target histones. Description: AtheNA Multi-Lyte ANA, Ab at 50 ug/ml.
Assay [5] deals with sclerosis autoantigen (Scl-70) (UniProt P11387). In words: AtheNA Multi-Lyte ANA, Ab at 6.25 ug/ml.
sclerosis autoantigen (Scl-70), sequence (P11387 2-765 limits assumed): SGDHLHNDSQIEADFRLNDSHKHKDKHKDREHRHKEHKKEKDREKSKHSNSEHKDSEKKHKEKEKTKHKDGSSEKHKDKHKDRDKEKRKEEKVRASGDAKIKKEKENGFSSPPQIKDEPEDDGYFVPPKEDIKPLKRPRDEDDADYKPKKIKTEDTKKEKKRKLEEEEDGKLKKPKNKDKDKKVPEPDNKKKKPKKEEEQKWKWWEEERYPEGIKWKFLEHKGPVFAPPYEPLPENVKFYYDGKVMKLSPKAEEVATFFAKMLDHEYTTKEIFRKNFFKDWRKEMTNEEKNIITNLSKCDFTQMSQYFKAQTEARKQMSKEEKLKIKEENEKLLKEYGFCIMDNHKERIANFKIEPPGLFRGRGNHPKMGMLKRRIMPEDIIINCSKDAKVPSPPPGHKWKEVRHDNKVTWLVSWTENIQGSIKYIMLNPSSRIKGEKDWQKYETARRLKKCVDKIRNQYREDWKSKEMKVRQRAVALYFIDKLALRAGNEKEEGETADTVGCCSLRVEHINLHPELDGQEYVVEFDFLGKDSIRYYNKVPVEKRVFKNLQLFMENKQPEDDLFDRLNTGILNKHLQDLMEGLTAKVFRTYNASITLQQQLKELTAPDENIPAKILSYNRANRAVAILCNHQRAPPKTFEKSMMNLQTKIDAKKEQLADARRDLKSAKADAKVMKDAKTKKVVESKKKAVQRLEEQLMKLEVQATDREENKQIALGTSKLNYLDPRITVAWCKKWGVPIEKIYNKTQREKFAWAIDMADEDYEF
For assay [6], the target named is histones. In words: AtheNA Multi-Lyte ANA, Ab at 6.25 ug/ml.
For assay [7], the target named is histones. Description: AtheNA Multi-Lyte ANA, Ab at 25 ug/ml.
Assay [8] concerns the target histones. In words: AtheNA Multi-Lyte ANA, Ab at 7.075 ug/ml.
In assay [9] the target is histones. Description: AtheNA Multi-Lyte ANA, Ab at 28.3 ug/ml.
The target in assay [10] is histones. In words: AtheNA Multi-Lyte ANA, Ab at 3.538 ug/ml.
Assay [11] deals with histones. In words: AtheNA Multi-Lyte ANA, Ab at 2.088 ug/ml.
Assay [12] concerns the target histones. Description: AtheNA Multi-Lyte ANA, Ab at 16.7 ug/ml.
In assay [13] the target is histones. Description: AtheNA Multi-Lyte ANA, Ab at 4.175 ug/ml.
Assay [14] deals with histones. In words: AtheNA Multi-Lyte ANA, Ab at 8.35 ug/ml.

B1: Ab7955 (antibody, V domains shown)
VH: LVESGGGVVRPGRSLRLSCVASGFTFNAYGMHWVRQGPGKGLEWLAVISYEGKTVYYADSVKDRFTISRDNSRNTVSLHLNNLRGEDTAVYYCAKGSASAAVLQHWGQGTLVSVTS
VL: MTQSPGSLAVSLGSRATINCKSSRSLLYRSNNKNYLAWYQQKPGQSPRLLIYWASSRESGVPDRFSGGGSGTSFTLTISSLQAEDVAVYYCQQYFNPPWTFGQGTKVEIK
As for B1, the AtheNA signal in assay [1] was 3; with histones [2] it was 60; in assay [3], 8; with histones [4], 90; in [5], 2; with histones [6] it was 44.

B2: Ab7962/293i (antibody, V domains shown)
VH: LVESGGGLVQPGGSLRLSCAASGFTFSSYEMNWVRQAPGKGLEWVSYISSSGSTIYYADSVKGRFTISRDNAKNSLYLQMNSLRAEDTAVYYCARVEQLAPSPYMDVWGKGTTVTVSS
VL: MTQSLDSLTVSLGERATINCKSSQSLLYTSNNKNYLAWYQQKSGQPPKLLIYWASIRDSGVPDRFSGSGSATDFTLTINNLQAEDVAVYFCQQYYKTPLTFGGGTKVEVR
Take B2: the values for the AtheNA signal with histones [2], in the assay with histones [4] and in the assay with histones [6] were 1, 4 and 3, respectively.

B3: Ab7957/293i (antibody, IgG1, V domains shown)
VH: LVESGGGVVPPGKSLRLSCAASGFTFSLYGIHWVRQAPGKGLEWVAVISYDGNTKYYTDSVKGRFTISRDNAKNTIYLQMNSLRLDDTAVYYCAKGAANSATFDFWGRGTMVTVSS
VL: MTQSPDSLTLSLGERATINCRSSRTVLYRSNNKNYLAWYQHKPGQPPKLLMSWASTRETGVPDRFSGSGSGTHFTLTITSLQPEDVAVYYCQQYYSPPWTFGQGTKVEIR
Regarding B3, the AtheNA signal with histones [7] amounted to 9; with histones [2], 8; in the assay with histones [4], 15; with histones [6], 6.

B4: Ab7970 (antibody, IgG1, V domains shown)
VH: LVESGGGVVQPGRSLRLSCAASGLTFSFYNFHWVRQTPGKGLEWVAGISYDATRTNYAGSVTGRFTISRDNSKKMLYLQMSSLGPQDTAVYHCARDRSDGQLHKVAFDSWGQGALVTVSS
VL: MTQSPDSLTLSLGERATINCRSSRTVLYRSNNKNYLAWYQHKPGQPPKLLMSWASTRETGVPDRFSGSGSGTHFTLTITSLQPEDVAVYYCQQYYSPPWTFGQGTKVEIR
B4: the AtheNA signal with histones [8] turned out to be 115; with histones [9], 131; in the assay with histones [10], 86.

B5: Ab7960/293i (antibody, IgG1, V domains shown)
VH: LVESGGGVVQPGKSLRLSCVASGFSFSTYGMHWVRQAPGKGLEWVAVMSFDGKTKYYADSVKGRFTISRDNPKNTLYLQMNSLRSEDTAVYYCAKGGAAAAVFDSWGPGILLTVSS
VL: MTQSPNSLAVSLGGRATINCKASQSILYRSNNKNYLAWYQHKAGQPPKLLIYWASTRESGVPERFSGSGSRTDFTLTINGLQAEDVAVYYCQQYYNPPWTFGQGTKVEIK
Turning to B5, the AtheNA signal with histones [2] turned out to be 26; with histones [4], 31; in the assay with histones [6], 18.

B6: Ab7961/293i (antibody, IgG1, V domains shown)
VH: LVESGGGVVQPGKSLRLSCVASGFTFSSYGMHWVRQAPGKGLEWVAVMSFDGKTKYYADSVKGRFTISRDNPKNTLYLQMNSLRSEDTAVYYCAKGGAAAAVFDSWGQGILLTVSS
VL: MTQSPNSLAVSLGGRATINCKTSQSILYRSNNKNYLAWYQHKSGQPPKLLIYWASTRESGVPDRFSGSGSRTDFTLTISGLQAEDVAVYYCQQYYNPPWTFGQGTKVEIK
For B6, the AtheNA signal with histones [7] is 77; with histones [2], 69; in the assay with histones [4], 77; with histones [6], 62.

B7: Ab7979 (antibody, IgG1, V domains shown)
VH: LVESGGGVVQPGKSLRLSCVASGFTFSTYGMHWVRQAPGKGLEWVAVMSFDGKTKYYADSVKGRFTISRDNPKNTLYLQMNSLRSEDTAVYYCAKGGAAAAVFDSWGQGILLTVSS
VL: MTQSPNSLAVSLGGRATINCKTSQSILYRSNNKNYLAWYQHKPGQPPKLLIYWASTRESRVPDRFSGSGSRTDFTLTISGLQAEDVAVYYCQQYYNPPWTFGQGTKVEIK
Consider B7, for which the AtheNA signal with histones [11] was found to be 93; with histones [12] it was 100; with histones [13], 114; with histones [14], 114.
